Data: PMC9361535

What was measured:
Assay in all cases: GFP-Trap pulldown, quantitative mass spectrometry (iBAQ)
MSRB3 = conditions: cytoplasmic fraction of HeLa cells; read off a plot
HSPA6/7 = conditions: cytoplasmic fraction of HeLa cells; read off a plot
ASH2L = ASH2L (UniProt Q9UBL3); conditions: nuclear extracts of HeLa cells; read off a plot
DPY30 = DPY30 (UniProt Q9C005); conditions: nuclear extracts of HeLa cells; read off a plot
HCFC2 = HCFC2 (UniProt Q9Y5Z7); conditions: nuclear extracts of HeLa cells; read off a plot
HSPA8 = HSPA8 (UniProt P11142); conditions: cytoplasmic fraction of HeLa cells; read off a plot
Chain of HSPA8 (P11142 whole entry): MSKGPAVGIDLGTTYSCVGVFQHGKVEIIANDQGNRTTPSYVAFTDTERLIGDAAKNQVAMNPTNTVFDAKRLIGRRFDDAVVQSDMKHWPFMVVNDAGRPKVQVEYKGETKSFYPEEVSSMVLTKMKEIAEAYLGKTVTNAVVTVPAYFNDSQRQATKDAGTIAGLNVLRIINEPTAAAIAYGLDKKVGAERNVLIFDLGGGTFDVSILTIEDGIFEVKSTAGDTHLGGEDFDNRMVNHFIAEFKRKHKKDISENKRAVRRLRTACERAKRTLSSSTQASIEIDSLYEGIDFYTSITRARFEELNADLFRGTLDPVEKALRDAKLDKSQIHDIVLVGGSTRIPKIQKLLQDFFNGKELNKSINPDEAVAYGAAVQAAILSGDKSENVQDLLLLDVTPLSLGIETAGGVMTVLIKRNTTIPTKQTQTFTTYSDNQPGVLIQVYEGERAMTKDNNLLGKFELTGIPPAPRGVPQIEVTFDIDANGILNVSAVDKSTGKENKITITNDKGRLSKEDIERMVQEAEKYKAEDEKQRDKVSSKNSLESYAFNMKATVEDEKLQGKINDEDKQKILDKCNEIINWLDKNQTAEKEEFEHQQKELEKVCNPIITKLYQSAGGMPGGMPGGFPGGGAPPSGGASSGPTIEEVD

JunD = JunD (UniProt P17535); conditions: nuclear extracts of HeLa cells, read off a plot
Chain of JunD (P17535 whole entry): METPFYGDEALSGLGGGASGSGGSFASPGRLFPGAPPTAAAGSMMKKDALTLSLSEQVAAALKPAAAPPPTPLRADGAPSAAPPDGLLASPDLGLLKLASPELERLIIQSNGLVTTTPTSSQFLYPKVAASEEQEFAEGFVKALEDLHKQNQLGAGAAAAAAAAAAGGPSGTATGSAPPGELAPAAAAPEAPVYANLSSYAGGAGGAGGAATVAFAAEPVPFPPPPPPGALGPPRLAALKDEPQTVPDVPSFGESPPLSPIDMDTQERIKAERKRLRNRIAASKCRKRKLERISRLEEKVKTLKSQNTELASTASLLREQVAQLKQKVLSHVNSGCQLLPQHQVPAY

KMT2A = KMT2A (UniProt Q03164); conditions: nuclear extracts of HeLa cells, read off a plot
Chain of KMT2A (Q03164 whole entry): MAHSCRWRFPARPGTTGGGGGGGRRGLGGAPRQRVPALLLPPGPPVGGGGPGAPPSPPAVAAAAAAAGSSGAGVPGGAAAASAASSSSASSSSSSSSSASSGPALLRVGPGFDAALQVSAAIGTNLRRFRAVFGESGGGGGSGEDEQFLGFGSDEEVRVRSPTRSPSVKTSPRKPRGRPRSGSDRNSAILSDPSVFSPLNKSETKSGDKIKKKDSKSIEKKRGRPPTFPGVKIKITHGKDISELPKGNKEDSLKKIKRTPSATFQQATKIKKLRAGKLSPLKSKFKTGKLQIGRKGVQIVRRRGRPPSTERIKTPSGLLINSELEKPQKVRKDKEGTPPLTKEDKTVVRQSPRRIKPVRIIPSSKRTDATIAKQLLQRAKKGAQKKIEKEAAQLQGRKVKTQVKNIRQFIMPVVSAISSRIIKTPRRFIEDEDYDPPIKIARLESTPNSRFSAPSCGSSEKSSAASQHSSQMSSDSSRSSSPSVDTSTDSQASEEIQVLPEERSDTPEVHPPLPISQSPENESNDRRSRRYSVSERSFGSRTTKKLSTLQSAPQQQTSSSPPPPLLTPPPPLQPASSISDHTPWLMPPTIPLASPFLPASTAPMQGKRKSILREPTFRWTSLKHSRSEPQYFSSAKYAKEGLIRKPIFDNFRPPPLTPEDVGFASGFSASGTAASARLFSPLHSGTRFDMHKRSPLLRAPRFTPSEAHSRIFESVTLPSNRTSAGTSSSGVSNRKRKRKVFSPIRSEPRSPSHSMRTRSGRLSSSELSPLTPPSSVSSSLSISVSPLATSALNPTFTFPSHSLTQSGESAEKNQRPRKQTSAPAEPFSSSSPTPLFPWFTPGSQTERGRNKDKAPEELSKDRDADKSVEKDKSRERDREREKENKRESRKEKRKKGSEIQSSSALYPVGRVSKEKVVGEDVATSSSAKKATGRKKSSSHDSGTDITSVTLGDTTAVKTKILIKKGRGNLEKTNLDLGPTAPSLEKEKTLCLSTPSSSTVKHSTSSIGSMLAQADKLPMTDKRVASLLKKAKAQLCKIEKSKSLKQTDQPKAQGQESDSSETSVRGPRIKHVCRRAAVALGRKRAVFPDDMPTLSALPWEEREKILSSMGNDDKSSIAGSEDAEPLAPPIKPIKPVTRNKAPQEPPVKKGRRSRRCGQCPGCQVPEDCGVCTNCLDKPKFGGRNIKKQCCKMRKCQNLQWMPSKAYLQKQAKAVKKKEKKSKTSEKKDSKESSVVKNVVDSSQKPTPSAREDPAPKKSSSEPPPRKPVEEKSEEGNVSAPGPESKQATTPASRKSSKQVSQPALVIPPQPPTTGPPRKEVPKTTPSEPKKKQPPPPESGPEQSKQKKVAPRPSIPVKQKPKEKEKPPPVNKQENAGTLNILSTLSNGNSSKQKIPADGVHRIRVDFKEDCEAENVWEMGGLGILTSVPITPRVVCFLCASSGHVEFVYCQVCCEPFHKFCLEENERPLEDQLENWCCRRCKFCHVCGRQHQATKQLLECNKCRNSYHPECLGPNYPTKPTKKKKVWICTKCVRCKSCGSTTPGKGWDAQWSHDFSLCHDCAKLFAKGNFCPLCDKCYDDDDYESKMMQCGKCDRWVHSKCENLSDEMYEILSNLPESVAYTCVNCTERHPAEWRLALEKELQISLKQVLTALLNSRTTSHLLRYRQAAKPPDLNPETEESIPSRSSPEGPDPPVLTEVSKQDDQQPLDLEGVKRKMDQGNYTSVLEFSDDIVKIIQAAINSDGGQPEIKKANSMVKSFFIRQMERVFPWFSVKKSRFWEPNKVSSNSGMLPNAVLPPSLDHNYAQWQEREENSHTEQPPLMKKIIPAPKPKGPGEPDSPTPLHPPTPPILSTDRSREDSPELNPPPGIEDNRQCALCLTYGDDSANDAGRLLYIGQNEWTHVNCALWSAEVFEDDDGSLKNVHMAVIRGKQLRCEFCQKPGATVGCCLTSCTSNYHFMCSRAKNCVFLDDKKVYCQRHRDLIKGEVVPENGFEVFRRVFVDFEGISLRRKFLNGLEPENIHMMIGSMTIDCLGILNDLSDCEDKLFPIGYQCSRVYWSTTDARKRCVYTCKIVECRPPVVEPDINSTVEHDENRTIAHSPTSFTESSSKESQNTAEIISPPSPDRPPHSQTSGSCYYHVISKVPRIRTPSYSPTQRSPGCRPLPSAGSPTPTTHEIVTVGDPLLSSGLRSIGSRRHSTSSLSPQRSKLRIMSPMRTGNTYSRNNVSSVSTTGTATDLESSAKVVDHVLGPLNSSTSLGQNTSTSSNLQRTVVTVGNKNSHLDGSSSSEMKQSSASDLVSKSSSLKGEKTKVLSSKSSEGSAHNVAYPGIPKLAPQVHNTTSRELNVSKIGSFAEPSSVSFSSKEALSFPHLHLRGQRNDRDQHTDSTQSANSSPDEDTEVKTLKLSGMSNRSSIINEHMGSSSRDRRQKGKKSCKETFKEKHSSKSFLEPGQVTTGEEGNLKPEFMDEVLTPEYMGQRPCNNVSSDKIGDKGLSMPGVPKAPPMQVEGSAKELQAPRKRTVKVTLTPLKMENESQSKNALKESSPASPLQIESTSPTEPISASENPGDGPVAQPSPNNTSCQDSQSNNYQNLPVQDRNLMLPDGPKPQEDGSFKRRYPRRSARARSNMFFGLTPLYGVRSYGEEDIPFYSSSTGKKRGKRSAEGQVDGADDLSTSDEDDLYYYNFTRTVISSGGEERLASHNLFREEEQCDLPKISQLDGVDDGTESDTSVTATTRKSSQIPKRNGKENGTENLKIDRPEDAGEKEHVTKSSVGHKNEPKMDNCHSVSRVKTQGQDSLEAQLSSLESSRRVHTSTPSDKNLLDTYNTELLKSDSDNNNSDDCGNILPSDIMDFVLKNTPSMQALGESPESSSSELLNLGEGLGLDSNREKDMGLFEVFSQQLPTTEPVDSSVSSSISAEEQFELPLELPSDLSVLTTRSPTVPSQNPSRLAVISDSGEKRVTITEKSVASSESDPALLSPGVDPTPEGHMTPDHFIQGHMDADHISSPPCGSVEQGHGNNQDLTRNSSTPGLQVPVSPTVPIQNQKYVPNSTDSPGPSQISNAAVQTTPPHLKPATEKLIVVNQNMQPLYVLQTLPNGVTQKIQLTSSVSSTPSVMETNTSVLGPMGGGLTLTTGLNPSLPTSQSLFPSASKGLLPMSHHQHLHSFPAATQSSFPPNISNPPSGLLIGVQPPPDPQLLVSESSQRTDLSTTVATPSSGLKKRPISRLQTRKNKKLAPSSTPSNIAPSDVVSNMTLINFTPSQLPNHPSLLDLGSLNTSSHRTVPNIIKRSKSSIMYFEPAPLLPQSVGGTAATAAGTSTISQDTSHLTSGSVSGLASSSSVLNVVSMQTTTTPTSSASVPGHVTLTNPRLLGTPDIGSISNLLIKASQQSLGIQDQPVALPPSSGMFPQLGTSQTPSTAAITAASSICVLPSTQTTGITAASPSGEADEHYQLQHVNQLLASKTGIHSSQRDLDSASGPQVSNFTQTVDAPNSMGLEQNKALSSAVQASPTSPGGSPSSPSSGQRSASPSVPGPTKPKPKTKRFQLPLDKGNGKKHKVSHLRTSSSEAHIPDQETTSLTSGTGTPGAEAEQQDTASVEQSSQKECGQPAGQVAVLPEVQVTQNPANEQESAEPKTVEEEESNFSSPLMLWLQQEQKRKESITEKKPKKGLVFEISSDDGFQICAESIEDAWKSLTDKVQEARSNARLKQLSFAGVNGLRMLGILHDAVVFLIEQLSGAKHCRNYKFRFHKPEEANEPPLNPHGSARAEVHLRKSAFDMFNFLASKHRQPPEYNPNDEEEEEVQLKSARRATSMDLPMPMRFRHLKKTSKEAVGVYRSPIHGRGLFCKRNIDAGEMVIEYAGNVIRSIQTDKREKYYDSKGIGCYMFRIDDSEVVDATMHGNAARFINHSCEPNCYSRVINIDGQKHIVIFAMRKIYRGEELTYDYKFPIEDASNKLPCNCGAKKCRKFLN

KMT2B = KMT2B (UniProt Q9UMN6); conditions: nuclear extracts of HeLa cells; read off a plot
PHLDA2 = conditions: cytoplasmic fraction of HeLa cells; read off a plot
PSIP1 = PSIP1 (UniProt O75475); conditions: nuclear extracts of HeLa cells; read off a plot
RBBP5 = RBBP5 (UniProt Q15291); conditions: nuclear extracts of HeLa cells; read off a plot
WDR5 = WDR5 (UniProt P61964); conditions: nuclear extracts of HeLa cells; read off a plot
ubiquitin = ubiquitin (UniProt P62979); conditions: cytoplasmic fraction of HeLa cells; read off a plot
DNAJA1 = conditions: cytoplasmic fraction of HeLa cells; read off a plot
SPRYD3 = conditions: cytoplasmic fraction of HeLa cells; read off a plot
CBS = conditions: cytoplasmic fraction of HeLa cells; read off a plot

Chain of DPY30 (Q9C005 whole entry): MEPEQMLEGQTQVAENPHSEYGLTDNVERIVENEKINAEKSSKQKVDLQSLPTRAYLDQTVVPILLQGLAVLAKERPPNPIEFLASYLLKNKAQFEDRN

## WT menin-GFP (from UniProt O00255-2) E359K
MSRB3
  other: stoichiometry: 0.22

## WT menin-GFP (from UniProt O00255-2) Q141R
HSPA6/7
  other: stoichiometry: 0.04
MSRB3
  other: stoichiometry: 0.055

## WT menin-GFP (from UniProt O00255-2) R322H
ASH2L
  other: stoichiometry: 0.06
DPY30
  other: stoichiometry: 0.23
HCFC2
  other: stoichiometry: 0.014
HSPA8
  other: stoichiometry: 0.26
JunD; parent: est. 1.0
  ratio to parent: 0.53
JunD
  other: stoichiometry: 0.053
KMT2A; parent: est. 1.0
  ratio to parent: 0.8
KMT2A
  other: stoichiometry: 0.028
KMT2B
  other: stoichiometry: 0.068
MSRB3
  other: stoichiometry: 0.045
PHLDA2
  other: stoichiometry: 0.045
PSIP1
  other: stoichiometry: 0.014
RBBP5
  other: stoichiometry: 0.076
WDR5
  other: stoichiometry: 0.046
ubiquitin
  other: stoichiometry: 0.35

## WT menin-GFP (from UniProt O00255-2) L168P
DNAJA1
  other: stoichiometry: 0.045
HSPA6/7
  other: stoichiometry: 0.075
SPRYD3
  other: stoichiometry: 0.04

## WT menin-GFP (from UniProt O00255-2) R52G
MSRB3
  other: stoichiometry: 0.05
PHLDA2
  other: stoichiometry: 0.09

## WT menin-GFP (from UniProt O00255-2) L264P
HSPA6/7
  other: stoichiometry: 0.11

## WT menin-GFP (from UniProt O00255-2) E408Q
CBS
  other: stoichiometry: 0.055
MSRB3
  other: stoichiometry: 0.095
PHLDA2
  other: stoichiometry: 0.12

## WT menin-GFP (from UniProt O00255-2) E366D
MSRB3
  other: stoichiometry: 0.055
PHLDA2
  other: stoichiometry: 0.06
